From PMC6568020, “Elucidating the Hot Spot Residues of Quorum Sensing Peptidic Autoinducer PapR by Multiple Amino Acid Replacements” (Frontiers in Microbiology, 2019) come the findings set out here.

Assay [1] deals with PlcR of B. cereus ATCC 14579 (B. cereus (endogenous in strain ATCC 14579)).
In assay [2] the target is PlcR of B. thuringiensis 407 Cry- (B. thuringiensis (endogenous in strain 407 Cry- plcA'Z)).
Assay [3] has as its target PlcR of B. cereus ATCC 14579 (B. cereus (endogenous in strain ATCC 14579)). This is another data set of the same source.
In assay [4] the target is PlcR of B. thuringiensis 407 Cry- (B. thuringiensis (endogenous in strain 407 Cry- plcA'Z)). The source holds these as a separate data set.
Assay [5] addresses PlcR of B. cereus ATCC 14579 (B. cereus (endogenous in strain ATCC 14579)). This is another data set of the same source.
Assay [6] concerns the target PlcR of B. thuringiensis 407 Cry- (B. thuringiensis (endogenous in strain 407 Cry- plcA'Z)). This is another data set of the same source.

In assay [1], PapR7-P4A (peptide) displayed an IC50 of inhibition of the hemolytic activity (human red blood cells) of supernatants of treated B. cereus ATCC 14579 cultures; the pair that is blocked: native PapR with PlcR of 4390 nM.
PapR7-P4A:F7A (peptide): in assay [2], the reduction of plcA'Z (β-galactosidase) activity in Bt A'Z cells, 2.5 μM peptide added at late-exponential phase; the pair that is blocked: endogenous PapR with PlcR was determined as 40%. For the same substance, in assay [3], the reduction of the hemolytic activity (human red blood cells) of supernatants of B. cereus ATCC 14579 cultures treated with 10 μM peptide; the pair that is blocked: native PapR with PlcR is 60%.
The substance PapR7-P4A:dE6 (peptide) displayed a reduction of plcA'Z (β-galactosidase) activity in Bt A'Z cells, 2.5 μM peptide added at late-exponential phase; the pair that is blocked: endogenous PapR with PlcR in assay [2] of 40%.
On to PapR7-P4A:dE6:F7A (peptide), for which the reduction of plcA'Z (β-galactosidase) activity in Bt A'Z cells, 10 μM peptide added at end of lag phase (OD600 0.1); the pair that is blocked: endogenous PapR with PlcR in assay [4] was 75%. The substance also displayed a reduction of plcA'Z (β-galactosidase) activity in Bt A'Z cells, 2.5 μM peptide added at late-exponential phase; the pair that is blocked: endogenous PapR with PlcR in assay [2] of 40%. The IC50 of inhibition of the hemolytic activity (human red blood cells) of supernatants of treated B. cereus ATCC 14579 cultures; the pair that is blocked: native PapR with PlcR in assay [1] amounted to 1990 nM.
On the same counts, the results for PapR7-P4A:dE6:dF7 (peptide) are 75%, 40% and 2140 nM.
The substance PapR7-P4A:dF7 (peptide) yielded a reduction of plcA'Z (β-galactosidase) activity in Bt A'Z cells, 2.5 μM peptide added at late-exponential phase; the pair that is blocked: endogenous PapR with PlcR in assay [2] of 40%. In assay [5], this substance displayed an inhibition of the hemolytic activity (human red blood cells) of supernatants of B. cereus ATCC 14579 cultures treated with 10 μM peptide; the pair that is blocked: native PapR with PlcR of 83%.
In assay [2], PapR7-dE6 (peptide) returned a reduction of plcA'Z (β-galactosidase) activity in Bt A'Z cells, 2.5 μM peptide added at late-exponential phase; the pair that is blocked: endogenous PapR with PlcR of 65%. For the same substance, the IC50 of inhibition of the hemolytic activity (human red blood cells) of supernatants of treated B. cereus ATCC 14579 cultures; the pair that is blocked: native PapR with PlcR in assay [1] was 1050 nM. In assay [6], the IC50 of inhibition of plcA'Z (β-galactosidase) activity in Bt A'Z cells, lacZ-based reporter assay; the pair that is blocked: endogenous PapR with PlcR came out at 977 nM.
As for PapR7-dE6:F7A (peptide), the reduction of plcA'Z (β-galactosidase) activity in Bt A'Z cells, 2.5 μM peptide added at late-exponential phase; the pair that is blocked: endogenous PapR with PlcR in assay [2] worked out at 65%. The same substance had an IC50 of inhibition of the hemolytic activity (human red blood cells) of supernatants of treated B. cereus ATCC 14579 cultures; the pair that is blocked: native PapR with PlcR in assay [1] of 2500 nM. The IC50 of inhibition of plcA'Z (β-galactosidase) activity in Bt A'Z cells, lacZ-based reporter assay, late-exponential phase; the pair that is blocked: endogenous PapR with PlcR in assay [6] is 2570 nM.
For PapR7-dE6:dF7 (peptide), in that order: 71%, 1380 nM and 1680 nM.
In turn, PapR7-dF7 (peptide) came in with a reduction of plcA'Z (β-galactosidase) activity in Bt A'Z cells, 2.5 μM peptide added at late-exponential phase; the pair that is blocked: endogenous PapR with PlcR in assay [2] of 63%. The substance further yielded an IC50 of inhibition of the hemolytic activity (human red blood cells) of supernatants of treated B. cereus ATCC 14579 cultures; the pair that is blocked: native PapR with PlcR in assay [1] of 3040 nM. Besides, in assay [6], the IC50 of inhibition of plcA'Z (β-galactosidase) activity in Bt A'Z cells, lacZ-based reporter assay; the pair that is blocked: endogenous PapR with PlcR amounted to 1220 nM.
